The values that follow come from patent US8927207B2, “miRNAs as therapeutic targets in cancer” (Research Foundation of State University of New York, priority 2008, dated 2015).

In general, IC50 refers to the concentration that inhibits the measured activity by half.

Like-named read-outs stand apart in the source and are kept apart here.

The test system of series [1] is conserved p53-binding promoter of miR-192. Briefly: luciferase reporter assay of p53-binding promoter of miR-192. The series is classed as cell-based, human. To be noted: HCT (wt-p53) cells, 5 μmol/L for 24 hours. Background: In a reporter assay the amount or activity of a reporter protein is the signal.
Description: Luciferase reporter assay was used to determine the transcriptional activation of conserved p53-binding promoter of miR-192. pGL3-Basic promoterless luciferase reporter plasmid (Promega) was used in this study. Double-stranded DNA oligonucleotides of conserved p53-binding sequence of miR-192 was synthesized and annealed and cloned upstream of firefly luciferase in the pGL3-Basic plasmid (miR-192-pGL3). […] Control vector and miR-192-pGL3 vector were transfected into both HCT-116 (wt-p53) and HCT-116 (null-p53) cells. To further induce p53 expression, transfected HCT-116 (wt-p53) and HCT-116 (null-p53) cells were also treated with 5 μmol/L 5-fluorouracil for 24 hours. The promoter activity of each construct was quantified by dual luciferase assay (Promega) 24 hours after transfection.
Another series has as its system miR-192. Briefly: real time qRT-PCR of endogenous mature miR-192 after MTX treatment. The series is classed as cell-based, human. Here is the method:
Thereafter, the expression of endogenous mature miR-192 was analyzed by real time qRT-PCT analysis using an internal control RNU6B as an internal standard for normalization. The cDNA synthesis was carried out with the High Capacity cDNA synthesis kit (Applied Biosystems) using 10 ng of total RNA as template. The miRNA sequence-specific RT-PCR primers for miR-192 and endogenous control RNU6B were purchased from Ambion. Real-time quantitative reverse transcription-PCR (qRT-PCR) analysis was carried out using Applied Biosystems 7500 Real-Time PCR System. The PCR master mix containing TaqMan 2× Universal PCR Master Mix (No Amperase UNG), 10× TaqMan assay and RT products in 20 μl volume were processed as follows: 95° C. for 10 minutes, and then 95° C. for 15 seconds, 60° C. for 60 seconds for up to 40 cycles (n=3). Signal was collected at the endpoint of every cycle. The gene expression ΔCT values of miRNAs from each sample were calculated by normalizing with internal control RNU6B and relative quantitation values were plotted.
(Quantitative PCR measures a nucleic acid by following its amplification.)

For series [2], the system named is U-2 OS cells. Briefly: WST-1 chemosensitivity to MTX after transfection. To be noted: for IC50: Homo sapiens, U2OS, 72 h. In kind it is cell-based.
A further series relates to HCT-116(wt-p53) cells. The series is described as follows: WST-1 chemosensitivity to TDX after transfection. The series is classed as cell-based. The note with it: Homo sapiens, HCT-116, 72 h. How it is done:
HCT-116 (wt-p53) cells were plated in 96-well plates at 1×10^3 cells/well in triplicate and were transfected with miR-215 precursor, non-specific control miRNA, or siRNA against TS or DHFR in 100 μl of medium. […] To measure viable cells, 10 μl of WST-1 (Roche Applied Science) was added to each well. After 2 hours incubation, absorbance was measured at 450 and 630 nm respectively (n=3). Non-specific control miRNA alone was used as a negative control, and siRNAs incubation with TDX or MTX were used as the positive controls.
(Formazan colour is commonly taken as a measure of viable cells.)

The subject of the next series is HCT-116 (wt-p53) cells. Briefly: WST-1 cell proliferation after miR-215 transfection. In kind it is cell-based, human. To be noted: day 5, vs non-specific miRNA control. Here is the method:
(§1) miR-215 inhibits cell proliferation of HCT-116(wt-p53) and U-2 OS cells.
(§2) Cell proliferation assays were performed on the transduced cells. HCT-116 (wt-p53), HCT-116 (null-p53), U-2 OS, and MG63 cells were plated in 96-well plates in triplicate at 1 10^3 cells/well after transfection with miR-215 precursor or non-specific control miRNA. Cells were cultured for 24, 48, 72, 96 h. The absorbance at 450 and 630 nm was measured after incubation with 10 μl of WST-1 for 2 h.

In series [3] the test system is U-2 OS cells. Described as above. The series is classed as cell-based. To be noted: day 5, vs non-specific miRNA control. How it is done: as §1, §2
The subject of series [4] is U-2 OS cells. The series is described as follows: cell cycle analysis by flow cytometry. In kind it is cell-based. Here is the method:
miR-215 induces G2-arrest in HCT-116 (wt-p53) and U-2 OS cells. To investigate the mechanism by which miR-215 suppressed cell proliferation in HCT-116 (wt-p53) and U-2 OS cells, the impact of miR-215 on cell cycle control was analyzed by flow cytometry at 36 h after transfection. HCT-116 (wt-p53), HCT-116 (null-p53), U-2 OS and MG63 cells were transfected with miR-215 precursor and the non-specific control miRNA described as above. At 36 h after transfection, cells were harvested and resuspended at 0.5-1 10^5 cells/ml in modified Krishan buffer containing 0.1% sodium citrate and 0.3% NP-40 and kept at 4° C. Before analysis by flow cytometry, cells were treated with 0.02 mg/ml RNase H and stained with 0.05 mg/ml propidium iodide (Sigma).

For a further series, the system named is p53. Briefly: western immunoblot of p53 in HCT-116 (wt-p53) and U-2 OS cells. In kind it is cell-based. The note with it: both HCT-116 (wt-p53) and U-2 OS cells, 48 h after transfection. From the text:
(§3) miR-215 increases the expression of cell cycle control genes p53 and p21. p53 and p21, a downstream target of the p53 pathway of growth control, are reported to block cells at G2 checkpoint mainly through inhibiting activity of Cdc2, the cyclin-dependent kinase that normally drives cells into mitosis, which is the ultimate target of pathways that mediate rapid arrest in G2 in response to DNA damage. To further analyze the mechanism of cell proliferation inhibition by miR-215, we transfected miR-215 precursor into HCT-116 (wt-p53) and U-2 OS cells, and evaluated the levels of cell cycle control genes p53 and p21 by western immunoblot analysis.

The subject of another series is p21. The series is described as follows: western immunoblot of p21 in HCT-116 (wt-p53) and U-2 OS cells. The note with it: both HCT-116 (wt-p53) and U-2 OS cells, 48 h after transfection. In kind it is cell-based.
Description: as §3

Another series concerns TS. Briefly: western immunoblot of TS protein after transfection. To be noted: 48 hours after transfection. In kind it is cell-based.
Another series relates to TS mRNA. The series is described as follows: real time qRT-PCR of TS mRNA. In kind it is cell-based. The note with it: U-2 OS cells.
The next series relates to DHFR mRNA. The series is described as follows: real time qRT-PCR of DHFR mRNA. In kind it is cell-based. To be noted: U-2 OS cells.
In another series the test system is 3′UTR of DHFR. The series is described as follows: pMIR-REPORT dual-luciferase reporter assay. The series is classed as cell-based, human. To be noted: HCT-116 (wt-p53), 30 hours after transfection, compared to the vector alone. From the text: (§4) To confirm whether miR-215 directly targets TS or DHFR, plasmids were constructed containing the fragments of the 3′UTR of TS or DHFR in the downstream region of firefly luciferase. The pMIR-REPORT Luciferase miRNA Expression Reporter Vector (Ambion) was used to determine the targets of miR-215. Double stranded DNA oligonucleotides containing the miR-215 binding sequence (wt-miR-215) or mismatch sequence (mut-miR-215) in 3′UTR of TS or DHFR mRNA and the HindIII and SpeI restriction site overhangs were synthesized (IDT, Coralville, Iowa) and annealed and cloned downstream of firefly luciferase in the pMIR-REPORT plasmid. The sequences of these synthesized oligonucleotides are provided below. The 3′UTR of TS includes two miR-215 binding sites: one is located at 84-104 bp, one is located at 216-236 bp.
(§5) The constructs were transiently transfected into HCT-116 (wt-p53) cells alone (control) or together with miR-215 precursor. […] Thirty hours after transfection, cells were lysated and luciferase activity was measured by the dual-luciferase reporter assay system (Promega, Madison, Wis.) according to the instructions. […]

The subject of a further series is 3′UTR of TS. Briefly: pMIR-REPORT dual-luciferase reporter assay. In kind it is cell-based, human. To be noted: HCT-116 (wt-p53), 30 hours after transfection, compared to the vector alone.
Description: as §4, §5

Description for DHFR mRNA: (§6) Expression levels of TS or DHFR mRNA were analyzed using real time qRT-PCR analysis (FIG. 15).
Description for TS mRNA: as §6

With `O=c1[nH]cc(F)c(=O)[nH]1` [5-fluorouracil], the “activation of luciferase expression from miR-192 promoter p53 binding site” value in [1] was “further enhanced”.

With `CN(Cc1cnc2nc(N)nc(N)c2n1)c1ccc(C(=O)N[C@@H](CCC(=O)O)C(=O)O)cc1` [MTX, methotrexate], the “expression of endogenous mature miR-192” value in the series on miR-192 (HCT-116 (null-p53)) is reported as “did not cause any change”; in the series with miR-192 (HT-29 (mut-p53)), “did not cause any change”; with miR-192 (cells with p53 induction (wt-p53), RNU6B normalized) it was “significant increase”. The IC50 turned out to be 49.7 nM with U-2 OS cells [2] (read-out: IC50 of MTX, negative control (non-specific control miRNA), 72 hours) and 37.3 nM in the series on U-2 OS cells [2] (read-out: IC50 of MTX, positive control (siRNA against DHFR), 72 hours). In the series on U-2 OS cells [2] (miR-215 transduced U-2 OS cells at 200 nM of MTX), this molecule registered a cells still alive of 83.6%.

Take `Cc1nc2ccc(CN(C)c3ccc(C(=O)N[C@@H](CCC(=O)O)C(=O)O)s3)cc2c(=O)[nH]1` [TDX, Ralitrexed]: the IC50 in the series with HCT-116(wt-p53) cells (HCT-116(wt-p53) cells transfected with miR-215, 72 hours) came out at 98.7 nM; in the series on HCT-116(wt-p53) cells (negative control (non-specific control miRNA), 72 hours) it was 18.6 nM; in the series on HCT-116(wt-p53) cells (positive control (siRNA against TS), 72 hours), 8.5 nM.

B1: miR-215: microRNA miR-215 (SEQ ID NO:9), transfected as precursor, 72 bps hairpin stem loop processed by DICER (nucleic acid)
chain: AUCAUUCAGAAAUGGUAUACAGGAAAAUGACCUAUGAAUUGACAGACAAUAUAGCUGAGUUUGUCUGUCAUUUCUUUAGGCCAAUAUUCUGUAUGACUGUGCUACUUCAA
modifications: delivered as precursor hairpin, further chemistry not given here
For the molecule B1, the “reduction in cell proliferation (OD)” value was “approximately 40%” with HCT-116 (wt-p53) cells and roughly 58% with U-2 OS cells [3]. In addition, the G2/S ratio with U-2 OS cells [4] (36 h after transfection (control 0.35)) was found to be 0.72. In addition, the “proportion of cells in the G2-phase” value with U-2 OS cells [4] (36 h after transfection (control 18.50%)) is reported as 29.69%. Also, the “proportion of cells in the S-phase” value in the series on U-2 OS cells [4] (36 h after transfection (control 52.08%)) was determined as 41.24%. Also, the “increase of G2/S ratio” value in the series with U-2 OS cells [4] (vs control) was greater than 2 fold. The p53 protein level result with p53 is “significant increase”. For the same molecule, the p21 protein level result in the series on p21 is “significant increase”. Also, the TS protein levels entry with TS was “clearly decreases”. In addition, in the series on TS mRNA, the “TS mRNA expression” value is on record as “no reduction”. Moreover, the “DHFR mRNA expression” value with DHFR mRNA is reported as “no reduction”. Further, the “luciferase activity, DHFR 3′UTR construct” value with 3′UTR of DHFR was “significant decrease”. Besides, the “luciferase activity, TS 3′UTR construct” value in the series with 3′UTR of TS is given as “significant decrease”.
